Test results published in US6114296.

Tests used:
[1] = biological target: Variant II: V240P+Q241P (Humicola insolens)
[2] = biological target: Humicola insolens 43 kD endoglucanase (Humicola insolens)
[3] = biological target: Variant I: V221S+N222S+Q223T (Humicola insolens)

Residual Activity, % DAA (25° C., 5 d storage in liquid detergent with protease) [1]: 81 % DAA
Residual Activity, % DAA (25° C., 5 d storage in liquid detergent with protease) [2]: 63 % DAA
Residual Activity, % DAA (25° C., 5 d storage in liquid detergent with protease) [3]: 83 % DAA
Substance: Savinase protease (from UniProt P29600) (enzyme)
